T1: Secreted Protein, Acidic, Rich in Cysteines (SPARC) (UniProt P09486 18-303)
T1 construct: also called osteonectin; SPARC protein
T1 sequence (looked up): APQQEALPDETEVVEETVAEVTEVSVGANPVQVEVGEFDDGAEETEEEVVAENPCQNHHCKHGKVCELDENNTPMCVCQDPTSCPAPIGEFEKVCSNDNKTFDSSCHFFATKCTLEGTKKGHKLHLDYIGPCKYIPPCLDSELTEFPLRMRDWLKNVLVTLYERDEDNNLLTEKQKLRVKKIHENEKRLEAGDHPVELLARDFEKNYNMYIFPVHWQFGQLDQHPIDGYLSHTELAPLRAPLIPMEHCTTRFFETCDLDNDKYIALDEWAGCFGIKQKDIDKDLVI

T2: HTI SPARC (purified platelet SPARC obtained from HTI) (UniProt P09486 18-303)
T2 sequence (looked up): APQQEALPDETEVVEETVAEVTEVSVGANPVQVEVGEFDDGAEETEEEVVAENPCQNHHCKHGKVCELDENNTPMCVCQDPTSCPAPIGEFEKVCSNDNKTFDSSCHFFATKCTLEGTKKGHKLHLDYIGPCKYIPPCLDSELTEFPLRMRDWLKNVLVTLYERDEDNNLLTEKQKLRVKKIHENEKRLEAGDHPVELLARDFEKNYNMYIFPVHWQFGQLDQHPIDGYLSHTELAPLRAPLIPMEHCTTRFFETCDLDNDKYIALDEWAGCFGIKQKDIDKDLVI

T3: Abx SPARC (SPARC from engineered HEK293 cells produced by Abraxis) (UniProt P09486 18-303, limits assumed)
T3 sequence (looked up): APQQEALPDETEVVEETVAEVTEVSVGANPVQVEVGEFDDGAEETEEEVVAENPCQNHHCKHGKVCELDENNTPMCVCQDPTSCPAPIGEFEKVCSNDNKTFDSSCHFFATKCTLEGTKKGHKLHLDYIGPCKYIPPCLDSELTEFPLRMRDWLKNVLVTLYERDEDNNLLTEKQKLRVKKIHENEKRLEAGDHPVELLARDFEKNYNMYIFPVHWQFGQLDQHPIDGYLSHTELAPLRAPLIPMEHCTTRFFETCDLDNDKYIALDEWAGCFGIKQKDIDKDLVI


What was measured:
[1] = target: Secreted Protein, Acidic, Rich in Cysteines (SPARC) (UniProt P09486); test: phage display panning on immobilised SPARC; times isolated among 134 sequenced clones
[2] = target: T1, Secreted Protein, Acidic, Rich in …; test: phage ELISA on SPARC-coated wells; OD column 1 of 3
Excerpt: (§1) Accordingly, a commercial peptide phage display library (12-mer peptides in M13) was screened for peptides which bind to SPARC. The target, SPARC is an acidic glycoprotein with a PI of 4.6. By immobilization on 96-wells plates with pH 9.6 coating buffer, Ph.D.-12 peptide library was screened four rounds to select peptide binders using phage display technology. Specifically, bound phages were eluted with an acidic eluting solution in the 1st round of screening. Then the screening stringency was enhanced gradually by decreasing the target protein concentration and increasing the percentage of Tween-20 in washing buffer. At the same time, competitive elution with excess target was adopted to improve the screening specificity. Finally, after four rounds of screening, ssDNA of selected clones were subjected to DNA sequencing. At the same time, the binding of the positive phages to the target protein was validated using phage ELISA.

[3] = target: T1, Secreted Protein, Acidic, Rich in …; test: phage ELISA on SPARC-coated wells; OD column 2 of 3
Excerpt: as §1

[4] = target: T1, Secreted Protein, Acidic, Rich in …; test: phage ELISA on SPARC-coated wells; OD column 3 of 3
Excerpt: as §1

[5] = target: T1, Secreted Protein, Acidic, Rich in …; test: phage display panning on immobilised SPARC; times isolated among 134 sequenced clones
Excerpt: as §1

[6] = target: T1, Secreted Protein, Acidic, Rich in …; test: concentration-dependent binding ELISA
[7] = target: T1, Secreted Protein, Acidic, Rich in …; test: concentration-dependent ELISA on SPARC
[8] = target: T2, HTI SPARC (purified platelet SPARC …); test: Biacore, SPARC immobilised on the chip; R = refolded scFv
[9] = target: T3, Abx SPARC (SPARC from engineered HEK293 …); test: as above
[10] = target: T2, HTI SPARC (purified platelet SPARC …); test: Biacore, SPARC immobilised on the chip; S = soluble scFv
[11] = target: T3, Abx SPARC (SPARC from engineered HEK293 …); test: as above

Molecule	OD [2]	OD [3]	OD [4]	Count [5]	other results
HLPKSLS (peptide)					Count [1]: 1
AAAPLNLSMTFP (also called clone 182)	0.756	0.782	0.643	1	
YTRLHHWIPPQR (12-mer from the Ph.D.-12 phage library; The peptide was cloned into pFUSE-hIgG1-Fc2 and expressed as the PD 15-Fc fusion; also called peptide 15; PD 15-Fc) [PD 15]	0.597	0.516	0.576	1	Kd [6]: 41 nM; EC50 (read off the curve) [7]: ~2 µg/mL; Kd [7]: 410 nM
VTPLLKFRALSS (12-mer from the Ph.D.-12 phage library; The peptide was cloned into pFUSE-hIgG1-Fc2 and expressed as the PD 21-Fc fusion; also called peptide 21; PD 21-Fc) [PD 21]	0.45	0.443	0.438	2	Kd [6]: 100 nM; EC50 (read off the curve) [7]: ~3 µg/mL; Kd [7]: 1 nM
SAHTLAAWFAKP (also called clone 204)	0.8	0.748	0.779	1	
VGNMPFVHPHQW (also called clone 192)	0.567	0.5	0.539	1	
KAYLDSIPITPR (also called clone 60)	0.619	0.611	0.605	1	
TTHSELSGYVEL (also called clone 188)	0.716	0.682	0.685	1	
VPATRVSPTPYA (also called clone 133)	0.545	0.554	0.5	1	
QILGYPTNLGPF (also called clone 135)	0.626	0.652	0.66	1	
ScFv 3-2 (scFv) scFv: EIVMTQSPGTLSLSPGDRATLSCRASQSVSGYLAWYQQKPGQAPRLLIYDASNRATGIPARFSGSGSGTDFTLTISSLQAEDVAVYYCQQYYSTLPTFGQGTKLEIKRSGGSTITSYNVYYTKLSSSGTQVQLVQSGGGVVQPGRPLKLSCAASGFTFSSYAMHWVRQAPGKGLEWVAVISYDGSNKYYADSVKGRFTISRDNSKNTLYLQMNSLRAEDTAVYYCARDLSWNDAFDIWGQGTMVTVSSAS					Kd [8]: 78000 nM; Kd [9]: 1300 nM
TSYLNSGMIPAR (also called clone 63)	0.688	0.664	0.602	1	
ScFv 2-1 (scFv, It was purified from bacteria on a nickel column) scFv: EVQLLESGGGLVQPGGSLRLSCAASGFTFSSYAMSWVRQAPGKGLEWVSMITPLGSTTAYADSVKGRFTISRDNSKNTLYLQMNSLRAEDTAVYYCAKRAGVFDYWGQGTLVTVSSGGGGSGGGGSGGGGSTDIQMTQSPSSLSASVGDRVTITCRASQSISSYLNWYQQKPGKAPKLLIYRASTLQSGVPSRFSGSGSGTDFTLTISSLQPEDFATYYCQQNDSFPTTFGQGTKVEIKR					Kd [10]: 330 nM; Kd [11]: 370 nM
IPFATAAYNAPG (also called clone 191)	0.564	0.567	0.58	1	
TQWHDDSTFYWL (also called clone 186)	0.903	0.985	0.882	2	
LSTHKLFHSHSQ (also called clone 180)	1.21	1.28	1.14	1	
HYFSRTQTLSTL (also called clone 194)	0.494	0.514	0.521	1	
AHPWRYTEPWSW (also called clone 101; clone 154)				6	
VSHPPRFPGWPQ (also called clone 59)	0.737	0.628	0.733	1	
IDKPLHVVLALG (also called clone 184)	0.634	0.635	0.554	2	
